We go through one molecule from US20200071417A1 (MARENGO THERAPEUTICS, published 2020).

Experiment [1] addresses T1, mouse CCR2 (mouse, UniProt P51683 1-373).
T1 construct: whole, on cells; the mouse protein was used in the assays; also called mCCR2
Put plainly: flow cytometry on transiently transfected ExpiCHO cells expressing mouse CCR2 only. The protocol:
(§1) ExpiCHO cells were transiently transfected with mouse CCR2, mouse CSF1R, or both mouse CCR2 and CSF1R, according to the manufacturer's instructions. In brief, the transfections were performed with ExpiCHO cells at a cell density of 5.6-6.3×10⁶ cells/mL and at least 95% viability. For each transfection, 25 μg of DNA was diluted with 1 mL of OptiPro SFM (Gibco 12309050) and filtered using spin-X centrifuge tube filters (Corning 8160). A solution of 920 μL of OptiPro and 80 μL of expifectamine was added to the filtered DNA, incubated for 1 minute at room temperature, and then added to the cells. On day 1 of the transfection, the cells were enhanced using 150 μL of ExpiCHO enhancer.
(§2) On day 2 of the transfection, the cells were washed with PBS containing 1% BSA (Sigma) and used to set 96-well V-bottom plates (Biotix AP-0350-9CVS) with 100,000 cells/well. UniTI-01 was added to the cells in serial dilutions and incubated for 1 hour at 4° C. The plates were washed twice with PBS containing 1% BSA. […] The plates were read on a CytoFLEX S (Beckman Coulter). Data were calculated as the median fluorescence intensity of the PE-positive population vs. the median fluorescence intensity of the PE-negative population. The data was normalized for the percent of total median fluorescence intensity. […]

The target of experiment [2] is T2, mouse CSF1R (mouse, UniProt P09581 20-977).
T2 construct: whole, on cells; the mouse protein was used in the assays; also called mCSF1R
T2 sequence (looked up): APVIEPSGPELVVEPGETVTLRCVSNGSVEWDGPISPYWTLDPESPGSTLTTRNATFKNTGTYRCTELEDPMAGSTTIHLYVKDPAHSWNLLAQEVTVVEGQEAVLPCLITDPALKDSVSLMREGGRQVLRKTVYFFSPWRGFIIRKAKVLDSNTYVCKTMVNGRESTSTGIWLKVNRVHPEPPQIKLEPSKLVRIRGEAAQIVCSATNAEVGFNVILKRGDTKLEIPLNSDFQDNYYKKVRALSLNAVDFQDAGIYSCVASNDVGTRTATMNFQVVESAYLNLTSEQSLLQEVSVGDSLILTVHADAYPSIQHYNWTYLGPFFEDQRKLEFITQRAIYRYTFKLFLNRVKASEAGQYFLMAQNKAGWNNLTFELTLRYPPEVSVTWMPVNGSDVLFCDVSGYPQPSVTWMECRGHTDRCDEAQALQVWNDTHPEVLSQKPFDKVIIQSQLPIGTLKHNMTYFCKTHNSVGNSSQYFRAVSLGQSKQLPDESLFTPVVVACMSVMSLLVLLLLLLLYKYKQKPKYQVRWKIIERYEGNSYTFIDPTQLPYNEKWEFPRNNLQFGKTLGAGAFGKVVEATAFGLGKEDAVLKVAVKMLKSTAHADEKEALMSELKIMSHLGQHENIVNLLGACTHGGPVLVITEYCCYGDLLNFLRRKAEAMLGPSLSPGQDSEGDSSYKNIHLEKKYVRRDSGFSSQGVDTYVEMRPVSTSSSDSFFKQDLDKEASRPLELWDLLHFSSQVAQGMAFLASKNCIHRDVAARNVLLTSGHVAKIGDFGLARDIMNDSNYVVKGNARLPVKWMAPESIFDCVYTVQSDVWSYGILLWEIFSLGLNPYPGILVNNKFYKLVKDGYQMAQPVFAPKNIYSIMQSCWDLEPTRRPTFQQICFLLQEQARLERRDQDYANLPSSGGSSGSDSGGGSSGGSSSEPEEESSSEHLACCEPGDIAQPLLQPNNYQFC
Put plainly: flow cytometry on transiently transfected ExpiCHO cells expressing mouse CSF1R only. The protocol:
as §1, §2

Experiment [3] addresses T3, mouse CCR2 and mouse CSF1R co-expressed on the same ExpiCHO cells (mouse, UniProt P51683 1-373; P09581 20-977).
T3 construct: whole, on cells; also called both mCCR2 and mCSF1R; CCR2 and CSF1R double positive cells
Put plainly: flow cytometry on transiently transfected ExpiCHO cells expressing both mouse CCR2 and mouse CSF1R. The protocol:
as §1, §2

T1 sequence (P51683 whole entry): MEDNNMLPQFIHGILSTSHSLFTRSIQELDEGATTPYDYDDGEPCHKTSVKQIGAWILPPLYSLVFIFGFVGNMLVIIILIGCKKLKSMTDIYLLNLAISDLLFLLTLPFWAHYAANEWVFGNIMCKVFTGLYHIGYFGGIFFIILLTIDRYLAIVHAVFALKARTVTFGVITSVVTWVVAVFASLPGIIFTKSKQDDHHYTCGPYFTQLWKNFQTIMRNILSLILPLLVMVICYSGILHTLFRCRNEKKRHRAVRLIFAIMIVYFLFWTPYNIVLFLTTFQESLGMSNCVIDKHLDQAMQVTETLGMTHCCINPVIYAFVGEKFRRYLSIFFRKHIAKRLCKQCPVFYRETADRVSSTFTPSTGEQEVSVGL
T3 sequence (P51683 whole entry, one chain of several): as the sequence (P51683 whole entry) above

B1: UniTI-01 (multispecific molecule #1), anti-CCR2/anti-CSF1R bispecific antibody (bispecific antibody)
heavy 1: QVQLQESGPGLVQPSQTLSLTCTVSGFSLTDFSVHWVRQPPGKGLEWMGRIRSEGNTDYNSALKSRLSISRDTSKSQVFLKMNSLQTEDTAIYFCTRGDILGFGYWGQGVMVTVSSAQTTAPSVYPLAPGCGDTTSSTVTLGCLVKGYFPEPVTVTWNSGALSSDVHTFPAVLQSGLYTLTSSVTSSTWPSQTVTCNVAHPASSTKVDKKVERRTIKPCPPCKCPAPNLLGGPSVFIFPPKIKDVLMISLSPIVTCVVVDVSEDDPDVQISWFVNNVEVHTAQTQTHREDYNSTLRVVSALPIQHQDWMSGKEFKCKVNNKDLPAPIERTISKPKGSVRAPQVYVLPPCEEEMTKKQVTLWCMVTDFMPEDIYVEWTNNGKTELNYKNTEPVLDSDGSYFMYSKLRVEKKNWVERNSYSCSVVHEGLHNHHTTKSFSRTPGK
light 1: DIVMTQSPLSVSVTPGESASISCRSSKSLLHFKGITFVYWYLQKPGQSPQLLIFRMSSLASGVPDRFSGSGSETDFTLKISRVEAEDVGTYYCGQLLENPYTFGAGTKLELKRADAAPTVSIFPPSMEQLTSGGATVVCFVNNFYPRDISVKWKIDGSEQRDGVLDSVTDQDSKDSTYSMSSTLSLTKVEYERHNLYTCEVVHKTSSSPVVKSFNRNEC
heavy 2: QVQLQQSGAELVKPGSSVKISCKASGYTFTSNFMHWIKQQPGNGLEWIGWIYPGDGDTEYNQKFNGKATLTADKSSSTAYMQLSSLTSEDSAVYFCAVNYGGYVLDAWGQGASVTVSSAETTAPSVYPLAPGTALKSNSMVTLGCLVKGYFPEPVTVTWNSGALSSGVHTFPAVLQSGLYTLTSSVTVPSSTWSSQAVTCNVAHPASSTKVDKKIVPRECNTIKPCPPCKCPAPNLLGGPSVFIFPPKIKDVLMISLSPIVTCVVVDVSEDDPDVQISWFVNNVEVHTAQTQTHREDYNSTLRVVSALPIQHQDWMSGKEFKCKVNNKDLPAPIERTISKPKGSVRAPQVCVLPPPEEEMTKKQVTLSCAVTDFMPEDIYVEWTNNGKTELNYKNTEPVLDSDGSYFMVSKLRVEKKNWVERNSYSCSVVHEGLHNHHTTKSFSRTPGK
light 2: EIVLTQSPTTMAASPGEKVTITCRASSSTNYMSWYQQKSGASPKPWIYETSKLASGVPDRFSGSGSGTSYSFTISSMETEDAATYYCHQWSSTPLTFGSGTKLEIKRADAAPTVSIFPPSMEQLTSGGATVVCFVNNFYPRDISVKWKIDGSEQRDGVLDSVTDQDSKDSTYSMSSTLSLTKVEYERHNLYTCEVVHKTSSSPVVKSFNRNEC
notes: Knob-in-hole heterodimer with one anti-CCR2 arm and one anti-mCSF1R arm
Consider B1, for which the EC50 came to 15 nM in experiment [1], 1 nM in experiment [2] and 0.4 nM in experiment [3].

Broadly, the EC50 is the concentration needed to bring the measured effect to its halfway point.
